Experimental data from patent US20260078171A1.

What was measured:
[1] = target: A021 (SARS-related coronavirus A021)
[2] = target: CS24 (SARS-related coronavirus CS24)
[3] = target: Civet 007-2004 (civet SARS-related coronavirus 007-2004)
[4] = target: Frankfurt 1 (SARS-CoV isolate Frankfurt 1)
[5] = target: GD-Pangolin (GD-Pangolin coronavirus)
[6] = target: LYRa11 (bat coronavirus LYRa11)
[7] = target: Rs4231 (bat coronavirus Rs4231)
[8] = target: SHC014 (bat coronavirus Rs SHC014)
[9] = target: WIV1 (bat coronavirus WIV1)
[10] = target: RaTG13 (bat coronavirus RaTG13)

Sequence of ADI-58125 (antibody) (VH): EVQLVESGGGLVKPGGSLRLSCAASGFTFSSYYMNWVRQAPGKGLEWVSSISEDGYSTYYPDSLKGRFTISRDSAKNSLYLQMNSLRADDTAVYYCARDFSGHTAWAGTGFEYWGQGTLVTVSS
Sequence of ADI-58125 (antibody) (VL): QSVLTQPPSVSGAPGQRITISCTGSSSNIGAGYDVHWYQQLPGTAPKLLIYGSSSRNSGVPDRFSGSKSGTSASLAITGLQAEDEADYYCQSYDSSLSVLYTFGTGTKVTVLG
Sequence of VYD222 (antibody) (VH): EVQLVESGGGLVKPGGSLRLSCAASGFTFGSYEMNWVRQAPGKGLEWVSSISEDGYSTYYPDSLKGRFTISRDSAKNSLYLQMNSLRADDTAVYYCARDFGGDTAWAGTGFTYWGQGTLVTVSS
Sequence of VYD222 (antibody) (VL): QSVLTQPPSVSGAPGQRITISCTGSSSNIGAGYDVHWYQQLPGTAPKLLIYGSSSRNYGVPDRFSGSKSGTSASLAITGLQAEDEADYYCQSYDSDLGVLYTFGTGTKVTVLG
Sequence of VYD224 (antibody) (VH): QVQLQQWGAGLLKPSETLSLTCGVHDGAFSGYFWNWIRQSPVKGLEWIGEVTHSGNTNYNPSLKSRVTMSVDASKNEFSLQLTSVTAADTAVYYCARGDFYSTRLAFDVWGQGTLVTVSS
Sequence of VYD224 (antibody) (VL): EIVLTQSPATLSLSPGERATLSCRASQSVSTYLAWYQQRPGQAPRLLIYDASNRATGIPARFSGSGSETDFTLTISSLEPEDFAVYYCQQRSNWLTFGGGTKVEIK

Substance	KD App [1]	KD App [2]	KD App [3]	KD App [4]	KD App [5]	KD App [6]	KD App [7]	KD App (SARS-CoV-1 (SARS-CoV))	KD App (SARS-CoV-2 (SARS-CoV-2))	KD App [8]	KD App [9]	KD App [10]
ADI-58125 (antibody)	1.07 nM	0.79 nM	0.57 nM	1.83 nM	1.03 nM	0.96 nM	1.53 nM	1.02 nM	3.2 nM	2.72 nM	1.32 nM	–
VYD222 (antibody)	0.24 nM	0.45 nM	0.23 nM	0.9 nM	0.15 nM	0.67 nM	0.49 nM	0.44 nM	0.54 nM	0.74 nM	0.97 nM	–
VYD224 (antibody)	13.5 nM	15.9 nM	9.13 nM	0.93 nM	1.63 nM	0.32 nM	10.8 nM	15.6 nM	1.68 nM	12.3 nM	0.33 nM	0.87 nM
